The text below walks through data of patent publication US20260266848A1, “COMPOSITIONS AND METHODS FOR DIAGNOSING AND TREATING DYSTONIA” (Duke University, priority 2023, published 2026).

The test system of one experiment is DYT-TOR1A MEF EVs. Briefly: Quantitative LC-MS/MS proteomics of EVs from drug-treated DYT-TOR1A MEF cultures (ritonavir, salubrinal). It is filed as cell-based, mouse. Also noted: key to RTV Corrective Direction / RTV Corrective Direction, Grwd1 / RTV Corrective Direction, Srrm2 / RTV Corrective Direction, Rbm17 / RTV Corrective Direction, Dcaf8 / RTV Corrective Direction, Edil3 / RTV Corrective Direction, Timp3 / RTV Corrective Direction, Heatr3 / RTV Corrective Direction, Brd4 / RTV Corrective Direction, P3h4 / RTV Corrective Direction, Pacsin3 / RTV Corrective Direction, Naa50 / RTV Corrective Direction, Lpar6 / RTV Corrective Direction, Ndrg1 / RTV Corrective Direction, Kntc1 / RTV Corrective Direction, Cdk11b / RTV Corrective Direction, Sumo1 / RTV Corrective Direction, Lsm4 / RTV Corrective Direction, Hmga2 / RTV Corrective Direction, Cstf1 / RTV Corrective Direction, Tes / RTV Corrective Direction, Sbno1 / RTV Corrective Direction, Unc119b / RTV Corrective Direction, Cfdp1 / RTV Corrective Direction, Sec61b: YES = protein abundance effect opposite to DYT/WT. Particulars: EV protein abundance; for RTV Corrective Direction: DYT + RTV (ritonavir) vs DYT, direction compared with DYT/WT; for DYT + RTV/DYT Cohen's d: ritonavir (RTV)-treated DYT vs DYT.

A further experiment deals with WT MEF EVs. The experiment can be described thus: Quantitative LC-MS/MS proteomics of EVs from ISRIB-treated WT MEF cultures. More on the design: key to ISRIB and DYT Parallel Direction / ISRIB and DYT Parallel Direction, Ctdsp1 / ISRIB and DYT Parallel Direction, Pcdh19 / ISRIB and DYT Parallel Direction, Tspan7 / ISRIB and DYT Parallel Direction, Myo1e / ISRIB and DYT Parallel Direction, Plpp3 / ISRIB and DYT Parallel Direction, Sh3bp4 / ISRIB and DYT Parallel Direction, Dnajc7 / ISRIB and DYT Parallel Direction, Drg1 / ISRIB and DYT Parallel Direction, Maea: YES = protein abundance effect similar to DYT/WT. Particulars: EV protein abundance; for WT + ISRIB/WT Cohen's d: ISRIB-treated WT vs WT; for ISRIB and DYT Parallel Direction: WT + ISRIB vs WT, direction compared with DYT/WT. It is filed as cell-based, mouse.

B1: Ankfy1 (protein, UniProt Q810B6 2-1169, looked up)
Rabankyrin-5: AEEEVAKLEKHLMLLRQEYVKLQKKLAETEKRCTLLAAQANKENSNESFISRLLAIVAGLYEQEQYSDLKIKVGDRHISAHKFVLAARSDSWSLANLSSTEEIDLSDANPEVTMTMLRWIYTDELEFREDDVFLTELMKLANRFQLQLLRERCEKGVMSLVNVRNCIRFYQTAEELNASTLMNYCAEIIASHWDDLRKEDFSSLSAQLLYKMIKSKTEYPLHKAIKVEREDVVFLYLIEMDSQLPGKLNETDHNGDLALDLALSRRLESIATTLVSHKADVDMVDKNGWSLLHKGIQRGDLFASTFLIKNGALVNAATAGAQETPLHLVALYSPKKYSADVMSEMAQIAEALLQAGANPNMQDSKGRTPLHLSIMARNDCVFSQLLQCKQLDLELKDHEGSTALWLAVQYITVSSDQSVNPFEDLPVVNGTSFDENSFAARLIQRGSNTDAPDVMTGNCLLQRAAGAGNEAAALFLATSGAHANHRNKWGETPLHTACRHGLANLTAELLQQGANPNLQTEEALPVPKESPVLMSSADSIYLQTPLHMAIAYNHPDVVSVILEQKANALHATNNLQIIPDFSLKDSRDQTVLGLALWTGMHTIAAQLLGSGASINDTMSDGQTLLHMAIQRQDSKSALFLLEHQADINVRTQDGETALQLAIKHQLPLVVDAICTRGADMSVPDEKGNPPLWLALASNLEDIASTLVRHGCDATCWGPGPSGCLQTLLHRAVDENNESTACFLIRSGCDVNSPRQPGTNGEGEEEARDGQTPLHLAASWGLEETVQCLLEFGANVNAQDAEGRTPVHVAISNQHSVIIQLLISHPNIELSVRDRQGLTPFACAMTYKNNKAAEAILKRESGAAEQVDNKGRNFLHVAVQNSDIESVLFLISVQANVNSRVQDASKLTPLHLAVQAGSEIIVRNLLLAGAKVNELTKHRQTALHLAAQQDLPTICSVLLENGVDFAAVDENGNNALHLAVMHGRLNNIRALLTECTVDAEAFNLRGQSPLHILGQYGKENAAAIFDLFLECMPEYPLDKPDAEGNTVLLLAYMKGNANLCRAIVRSGVRLGVNNNQGVNIFNYQVATKQLLFRLLDMLSKEPPWCDGSNCYECTAKFGVTTRKHHCRHCGRLLCHKCSTKEIPIIKFDLNKPVRVCNICFDVLTLGGVS
In the case of B1, in the experiment with DYT-TOR1A MEF EVs, the “RTV Corrective Direction” value was “YES” and the “DYT + RTV/DYT Cohen's d” value was 2.86. In the experiment on WT MEF EVs, the “WT + ISRIB/WT Cohen's d” value was −1.45; the “ISRIB and DYT Parallel Direction” value is “YES”.

B2: Vps26b (protein, UniProt Q8C0E2 1-336, looked up)
Vacuolar protein …: MSFFGFGQSVEVEILLNDAESRKRAEHKTEDGKKEKYFLFYDGETVSGKVSLSLKNPNKRLEHQGIKIEFIGQIELYYDRGNHHEFVSLVKDLARPGEITQSQAFDFEFTHVEKPYESYTGQNVKLRYFLRATISRRLNDVVKEMDIVVHTLSTYPELNSSIKMEVGIEDCLHIEFEYNKSKYHLKDVIVGKIYFLLVRIKIKHMEIDIIKRETTGTGPNVYHENDTIAKYEIMDGAPVRGESIPIRLFLAGYELTPTMRDINKKFSVRYYLNLVLIDEEERRYFKQQEVVLWRKGDIVRKSMSHQAAIASQRFEGTTSLGEVRTPGQLSDNNSRQ
Regarding B2, in the experiment on DYT-TOR1A MEF EVs, the “RTV Corrective Direction” value is given as “YES” and the “DYT + RTV/DYT Cohen's d” value is on record as 3.01. Also, in the experiment with WT MEF EVs, the “WT + ISRIB/WT Cohen's d” value is listed as −1.43; the “ISRIB and DYT Parallel Direction” value is listed as “YES”.

B3: Wars (protein, UniProt P32921 1-481, looked up)
Tryptophan--tRNA ligase, …: MADMPSGESCTSPLELFNSIATQGELVRSLKAGNAPKDEIDSAVKMLLSLKMSYKAAMGEEYKAGCPPGNPTAGRNCDSDATKASEDFVDPWTVRTSSAKGIDYDKLIVQFGSSKIDKELINRIERATGQRPHRFLRRGIFFSHRDMNQILDAYENKKPFYLYTGRGPSSEAMHLGHLVPFIFTKWLQDVFNVPLVIQMSDDEKYLWKDLTLEQAYSYTVENAKDIIACGFDINKTFIFSDLEYMGQSPGFYRNVVKIQKHVTFNQVKGIFGFTDSDCIGKISFPAVQAAPSFSNSFPKIFRDRTDIQCLIPCAIDQDPYFRMTRDVAPRIGHPKPALLHSTFFPALQGAQTKMSASDPNSSIFLTDTAKQIKSKVNKHAFSGGRDTVEEHRQFGGNCEVDVSFMYLTFFLEDDDRLEQIRKDYTSGAMLTGELKKTLIDVLQPLIAEHQARRKAVTEETVKEFMTPRQLSFHFQCFCFDT
Regarding B3, in the experiment with DYT-TOR1A MEF EVs, the “RTV Corrective Direction” value is “YES” and the “DYT + RTV/DYT Cohen's d” value is given as 4.38. In the experiment on WT MEF EVs, the “WT + ISRIB/WT Cohen's d” value is reported as −1.03; the “ISRIB and DYT Parallel Direction” value is given as “YES”.

B4: Picalm (protein, UniProt Q7M6Y3 2-660, looked up)
Phosphatidylinositol-binding …: SGQSLTDRITAAQHSVTGSAVSKTVCKATTHEIMGPKKKHLDYLIQCTNEMNVNIPQLADSLFERTTNSSWVVVFKSLITTHHLMVYGNERFIQYLASRNTLFNLSNFLDKSGLQGYDMSTFIRRYSRYLNEKAVSYRQVAFDFTKVKRGADGVMRTMNTEKLLKTVPIIQNQMDALLDFNVNSNELTNGVINAAFMLLFKDAIRLFAAYNEGIINLLEKYFDMKKNQCKEGLDIYKKFLTRMTRISEFLKVAEQVGIDRGDIPDLSQAPSSLLDALEQHLASLEGKKIKDSTAASRATTLSNAVSSLASTGLSLTKVDEREKQAALEEEQARLKALKEQRLKELAKKPHTSLTTAASPVSTSAGGIMTAPAIDIFSTPSSSNSTSKLPNDLLDLQQPTFHPSVHAMSAAPQGASTWGDPFSATLDAVEDAIPSLNPFLTKSSGDVHLPIASDVSTFTTRTPTHEMFVGFSPSPVAQPHSSAGLNVDFESVFGNKSTNVAVDSGGFDELGGLLKPTVASQNQSLPVAKLPPNKLVSDDLDSSLANLVGNLGIGNGTTKNDVSWSQPGEKKLTGGSNWQPKVAPTTAWSAATMNGMHFPQYAPPVMAYPATTPTGMIGYGIPPQMGSVPVMTQPTLIYSQPVMRPPNPFGPVSGAQIQFM
Take B4: in the experiment with DYT-TOR1A MEF EVs, the “RTV Corrective Direction” value was “YES” and the “DYT + RTV/DYT Cohen's d” value was 2.85. Further, in the experiment on WT MEF EVs, the “WT + ISRIB/WT Cohen's d” value is −1.01; the “ISRIB and DYT Parallel Direction” value is given as “YES”.

B5: Copg2 (protein, UniProt Q9QXK3 1-871, looked up)
Coatomer subunit gamma-2: MIKKFDKKDEESGSGSNPFQHLEKSAVLQEARIFNETPINPRRCLHILTKILYLLNQGEHFGTMEATEAFFAMTRLFQSNDQTLRRMCYLTIKEMATISEDVIIVTSSLTKDMTGKEDVYRGPAIRALCRITDGTMLQAVERYMKQAIVDKVSSVASSALVSSLHMMKISYDVVKRWINEAQEAASSDNIMVQYHALGVLYHLRKNDRLAVSKMLNKFTKSGLKSQFAYCMLIRIASRLLKESEDGHESPLFDFIESCLRNKHEMVIYEAASAIIHLPNCTARELAPAVSVLQLFCSSPKPALRYAAVRTLNKVAMKHPSAVTACNLDLENLITDSNRSIATLAITTLLKTGSESSVDRLMKQISSFVSEISDEFKVVVVQAISALCHKYPRKHSVMMTFLSNMLRDDGGFEYKKAIVDCIISIVEENPESKEAGLAHLCEFIEDCEHTVLATKILHLLGKEGPRTPVPSKYIRFIFNRVVLENEAVRAAAVSALAKFGAQNESLLPSILVLLQRCMMDTDDEVRDRATFYLNVLQQRQMALNATYIFNGLTVSIPGMEKALHQYTLEPSEKPFDMKSIPLAMAPVFEQKSEITLVTPKPEKLAPSRQDIFQEQLAAIPEFMNLGPLFKSSEPVQLTEAETEYFVRCVKHMFTDHIVFQFDCTNTLNDQLLEKVTVQMEPSDSYEVLCCIPAPSLPYNQPGICYTLVRLPDEDPTAVAGTFSCTMKFTVRDCDPNTGVPDEDGYDDEYVLEDLEVTVSDHIQKILKPNFAAAWEEVGDAFEKEETFALSSTKTLEEAVNNIITFLGMQPCERSDKVPENKNSHSLYLAGVYRGGYDLLVRSRLALADGVTMQVTVRSKERTPVDVILASVG
As to B5, in the experiment on DYT-TOR1A MEF EVs, the “RTV Corrective Direction” value is listed as “YES” and the “DYT + RTV/DYT Cohen's d” value was 3.05. Besides, in the experiment with WT MEF EVs, the “WT + ISRIB/WT Cohen's d” value is −0.44; the “ISRIB and DYT Parallel Direction” value is “YES”.

B6: Megf10 (protein, UniProt Q6DIB5 26-1147, looked up)
Multiple epidermal growth …: LNLEDPNVCSHWESYSVTVQESYPHPFDQIYYTSCTDILNWFKCTRHRISYRTAYRHGEKTMYRRKSQCCPGFYESRDMCVPHCADKCVHGRCIAPNTCQCEPGWGGTNCSSACDGDHWGPHCSSRCQCKNRALCNPITGACHCAAGYRGWRCEDRCEQGTYGNDCHQRCQCQNGATCDHITGECRCSPGYTGAFCEDLCPPGKHGPHCEQRCPCQNGGVCHHVTGECSCPSGWMGTVCGQPCPEGRFGKNCSQECQCHNGGTCDAATGQCHCSPGYTGERCQDECPVGSYGVRCAEACRCVNGGKCYHVSGTCLCEAGFSGELCEARLCPEGLYGIKCDKRCPCHLDNTHSCHPMSGECGCKPGWSGLYCNETCSPGFYGEACQQICSCQNGADCDSVTGRCACAPGFKGTDCSTPCPLGRYGINCSSRCGCKNDAVCSPVDGSCICKAGWHGVDCSIRCPSGTWGFGCNLTCQCLNGGACNTLDGTCTCAPGWRGAKCEFPCQDGTYGLNCAERCDCSHADGCHPTTGHCRCLPGWSGVHCDSVCAEGRWGPNCSLPCYCKNGASCSPDDGICECAPGFRGTTCQRICSPGFYGHRCSQTCPQCVHSSGPCHHITGLCDCLPGFTGALCNEVCPSGRFGKNCAGVCTCTNNGTCNPIDRSCQCYPGWIGSDCSQPCPPAHWGPNCIHTCNCHNGAFCSAYDGECKCTPGWTGLYCTQRCPLGFYGKDCALICQCQNGADCDHISGQCTCRTGFMGRHCEQKCPAGTYGYGCRQICDCLNNSTCDHITGTCYCSPGWKGARCDQAGVIIVGNLNSLSRTSTALPADSYQIGAIAGIVVLVLVVLFLLALFIIYRHKQKRKESSMPAVTYTPAMRVINADYTIAETLPHSNGGNANSHYFTNPSYHTLSQCATSPHVNNRDRMTIAKSKNNQLFVNLKNVNPGKRGTLVDCTGTLPADWKQGGYLNELGAFGLDRSYMGKSLKDLGKNSEYNSSTCSLSSSENPYATIKDPPALLPKSSECGYVEMKSPARRDSPYAEINNSTPANRNVYEVEPTVSVVQGVFSNSGHVTQDPYDLPKNSHIPCHYDLLPVRDSSSSPKREDGGGSNSTSSNSTSSSSSSSE
As for B6, in the experiment with DYT-TOR1A MEF EVs, the “RTV Corrective Direction” value is “YES” and the “DYT + RTV/DYT Cohen's d” value was −2.80. For the same molecule, in the experiment with WT MEF EVs, the “WT + ISRIB/WT Cohen's d” value is listed as 1.37; the “ISRIB and DYT Parallel Direction” value is listed as “YES”.
